Test results taken from US20100210509A1, “LONG ACTING HYALURONIC ACID - PEPTIDE CONJUGATE” (Postech Academy-Industry Foundation, priority 2007, published 2010).
Where no end group is shown, it is not given here. [ ]: non-standard residue; d: D form.

Legend:
FPRL1 receptor [1] = molecular target: T1, FPRL1 receptor (Homo sapiens, UniProt P25090); test: pERK level by Western blot in FPRL1 over-expressing RBL-2H3 cells after stimulation; type: cell-based
T1 construct: expressed in transfected cells; host or cells: RBL-2H3 (rat basophilic leukemia) cells over-expressing FPRL1, kept under G418 selection
T1 sequence (P25090 1-351): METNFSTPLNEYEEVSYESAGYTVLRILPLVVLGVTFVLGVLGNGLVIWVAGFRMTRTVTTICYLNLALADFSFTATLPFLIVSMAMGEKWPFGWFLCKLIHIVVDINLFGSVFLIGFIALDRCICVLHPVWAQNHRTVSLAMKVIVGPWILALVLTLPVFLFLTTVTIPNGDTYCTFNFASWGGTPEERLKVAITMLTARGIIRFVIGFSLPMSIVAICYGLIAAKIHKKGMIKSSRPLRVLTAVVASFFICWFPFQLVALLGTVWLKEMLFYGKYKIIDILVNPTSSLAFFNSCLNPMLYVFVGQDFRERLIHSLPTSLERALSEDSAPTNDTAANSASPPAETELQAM
Method: In order to investigate the effect of HA conjugation on the signal transduction activity of peptide, three kinds of samples were prepared, the raw peptide, conjugate of peptide with HA-AMEA, and conjugate of peptide with HA-AEMA after hyaluronidase treatment. In the conjugate samples, the number of peptide molecules per single HA derivative chain was 5, 8, and 23, respectively. Each sample of conjugate of peptide with HA-AEMA (0.4 mL, 1 mg/mL) was divided into two aliquots. One aliquot was mixed with 0.2 mL of hyaluronidase solution (400 units/mL) and the other was mixed with 0.2 mL of water. Then, the solutions were incubated at 37° C. overnight for the complete enzymatic degradation of HA. Three replicates were carried out for the following bioactivity tests measuring the intracellular level of pERK and calcium ion. […]
The prepared cells were aliquoted into 1×10^6 cells and stimulated with a control (no treatment), peptide (CWRYMVm, SEQ ID NO: 5), HA-AEMA, the mixture of peptide and HA-AEMA, and three kind of conjugate samples with and without hyaluronidase treatment. […] Protein concentrations in the lysates were determined by Bradford protein assay. […]
The data are expressed as means±S.D. from several separate experiments. […]

[2] = Dissolution of peptide in serum; type: physicochemical; settings: fetal bovine serum
Method: In order to investigate the effect of HA conjugation on the serum stability of peptide, raw peptide and three kinds of conjugate samples were dissolved in 0.5 mL of water and mixed with 0.5 mL of fetal bovine serum (FBS), respectively. In conjugates of peptide with HA derivative, the number of peptide molecules per single HA chain was 5, 19, and 33, respectively. […] Then, the solutions were incubated at 37° C. for 96 hours. The remaining amount of peptide was measured by GPC analysis after incubation for 12, 24, 48, 72, and 96 hours. Three replicates were carried out.

FPRL1 receptor [3] = molecular target: T1, FPRL1 receptor; test: Co-treatment with antagonistic peptide, pERK Western blot in RBL-2H3/FPRL1 cells; type: cell-based; settings: RBL-2H3/FPRL1 cells stimulated 5 min with CWRYMVm or HA-CWRYMVm conjugates (5, 8, 23)
Method: In order to investigate the effect of co-treatment with antagonistic peptide (C—WRWWWW (SEQ ID NO: 6), WRW4 (SEQ ID NO: 2) on the binding characteristics of the conjugates of peptide with HA-AEMA to FPRL1 receptor, the RBL-2H3/FPRL1 cells were stimulated with a control (no treatment), peptide (CWRYMVm, SEQ ID NO: 5), and three kinds of conjugate samples for 5 minutes in the presence and absence of C-WRWWWW (SEQ ID NO: 6), ([…], competitor for FPRL1 binding). The other procedures including electrophoresis and immunoblot analysis for Western blot was repeated in the same way as described above.

| Substance | pERK level normalized to peptide alone (100%) (FPRL1 receptor [1]; RBL-2H3/FPRL1 cells, 5 min stimulation, same peptide amount, without hyaluronidase treatment) [%] | stimulation time of highest elevation of intracellular pERK level (FPRL1 receptor [1]; stimulation up to 30 min, Western blot) [min] | dissolution in serum [2] | intracellular level of pERK on co-treatment with antagonistic peptide (FPRL1 receptor [3]) |
| --- | --- | --- | --- | --- |
| Cys-Trp-Arg-Tyr-Met-Val-DMet (CWRYMV[dM]; also: conjugated with hyaluronic acid derivative) [CWRYMVm, Agonistic peptide for FPRL1 receptor; WRYMVm modified with cysteine] | 100 | 5 | not dissolved in serum completely | – |
| Trp-Arg-Trp-Trp-Trp-Trp (WRWWWW; also: conjugated with hyaluronic acid derivative) [FPRL1 antagonist peptide] | – | – | – | did not increase at all |
